Laboratory results taken from paper PMC4509936 (RNA, 2015).

T1: BMV 1a protein, carboxy-terminal flag-tagged version (Brome mosaic virus, UniProt P03588 1-961)
T1 sequence (looked up): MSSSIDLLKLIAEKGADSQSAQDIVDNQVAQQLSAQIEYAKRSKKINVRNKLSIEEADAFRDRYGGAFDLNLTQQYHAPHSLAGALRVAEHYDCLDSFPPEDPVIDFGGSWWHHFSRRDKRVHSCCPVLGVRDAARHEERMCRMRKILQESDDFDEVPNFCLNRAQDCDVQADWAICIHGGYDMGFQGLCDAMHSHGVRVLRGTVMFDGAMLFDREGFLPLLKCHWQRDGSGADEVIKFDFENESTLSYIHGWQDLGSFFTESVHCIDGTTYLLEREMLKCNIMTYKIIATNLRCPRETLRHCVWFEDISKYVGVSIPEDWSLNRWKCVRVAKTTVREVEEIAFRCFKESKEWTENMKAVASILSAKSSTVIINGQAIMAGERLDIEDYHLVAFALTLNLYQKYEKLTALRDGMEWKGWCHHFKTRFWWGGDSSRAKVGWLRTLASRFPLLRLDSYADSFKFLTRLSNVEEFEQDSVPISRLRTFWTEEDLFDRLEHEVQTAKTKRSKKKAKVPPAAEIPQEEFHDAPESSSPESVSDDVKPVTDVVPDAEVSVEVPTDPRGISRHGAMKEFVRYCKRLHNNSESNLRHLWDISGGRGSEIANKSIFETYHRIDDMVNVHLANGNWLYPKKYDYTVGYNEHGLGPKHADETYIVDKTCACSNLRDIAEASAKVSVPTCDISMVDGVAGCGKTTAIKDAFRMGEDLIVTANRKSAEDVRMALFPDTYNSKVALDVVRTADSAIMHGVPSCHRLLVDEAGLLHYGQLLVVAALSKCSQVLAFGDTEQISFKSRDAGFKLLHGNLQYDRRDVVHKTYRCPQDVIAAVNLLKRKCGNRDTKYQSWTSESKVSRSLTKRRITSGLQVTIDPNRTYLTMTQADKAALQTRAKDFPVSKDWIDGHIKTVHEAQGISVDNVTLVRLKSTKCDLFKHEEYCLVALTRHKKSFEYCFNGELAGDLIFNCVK


Legend:
[1] = target: T1, BMV 1a protein, carboxy-terminal …; assay: co-IP
[2] = target: T1, BMV 1a protein, carboxy-terminal …; assay: co-IP; remark: listed apart in the source

| Binder | fold enrichment compared with “Flag only” controls [1] | fold enrichment compared with “Flag only” control [2] |
| --- | --- | --- |
| Lsm1 (natural protein, S. cerevisiae (endogenous in YPH500), UniProt P47017 1-172, looked up) MSANSKDRNQSNQDAKRQQQNFPKKISEGEADLYLDQYNFTTTAAIVSSVDRKIFVLLRDGRMLFGVLRTFDQYANLILQDCVERIYFSEENKYAEEDRGIFMIRGENVVMLGEVDIDKEDQPLEAMERIPFKEAWLTKQKNDEKRFKEETHKGKKMARHGIVYDFHKSDMY | 7 fold | 2 fold |
| Pat1 (natural protein, S. cerevisiae (endogenous in YPH500), UniProt P25644 1-796, looked up) MSFFGLENSGNARDGPLDFEESYKGYGEHELEENDYLNDETFGDNVQVGTDFDFGNPHSSGSSGNAIGGNGVGATARSYVAATAEGISGPRTDGTAAAGPLDLKPMESLWSTAPPPAMAPSPQSTMAPAPAPQQMAPLQPILSMQDLERQQRQMQQQFMNFHAMGHPQGLPQGPPQQQFPMQPASGQPGPSQFAPPPPPPGVNVNMNQMPMGPVQVPVQASPSPIGMSNTPSPGPVVGATKMPLQSGRRSKRDLSPEEQRRLQIRHAKVEKILKYSGLMTPRDKDFITRYQLSQIVTEDPYNEDFYFQVYKIIQRGGITSESNKGLIARAYLEHSGHRLGGRYKRTDIALQRMQSQVEKAVTVAKERPSKLKDQQAAAGNSSQDNKQANTVLGKISSTLNSKNPRRQLQIPRQQPSDPDALKDVTDSLTNVDLASSGSSSTGSSAAAVASKQRRRSSYAFNNGNGATNLNKSGGKKFILELIETVYEEILDLEANLRNGQQTDSTAMWEALHIDDSSYDVNPFISMLSFDKGIKIMPRIFNFLDKQQKLKILQKIFNELSHLQIIILSSYKTTPKPTLTQLKKVDLFQMIILKIIVSFLSNNSNFIEIMGLLLQLIRNNNVSFLTTSKIGLNLITILISRAALIKQDSSRSNILSSPEISTWNEIYDKLFTSLESKIQLIFPPREYNDHIMRLQNDKFMDEAYIWQFLASLALSGKLNHQRIIIDEVRDEIFATINEAETLQKKEKELSVLPQRSQELDTELKSIIYNKEKLYQDLNLFLNVMGLVYRDGEISELK | 25 fold | 4.5 fold |
